One test has as its target human glucagon receptor (human, UniProt P47871 26-477). Kind of test: cell-based or functional assay.
Another test has as its target human GLP-1 receptor (human, UniProt P43220 24-463). Kind of test: cell-based or functional assay.

Data on 17 molecules can be found in patent US20230357348A1 (AstraZeneca / MedImmune, published 2023).

Starred links: 1 amine or outer side, 2 acyl side, 3 side chain; linkers in the order of their positions; H or OH if unused. Non-standard residues stand in square brackets, D forms with d. Groups on a side chain read outwards from the residue. Primed or numbered codes have the meaning given here. No end group written: not given here. *: point of attachment. C20 diacid = O=C(O)CCCCCCCCCCCCCCCCCCC(=O)*; C18 diacid = O=C(O)CCCCCCCCCCCCCCCCC(=O)*; γGlu = O=C(O)[C@H](CCC(=O)[*:2])N[*:1]; αMeF = C[C@](N)(Cc1ccccc1)C(=O)O; PEG4′ = polyethylene glycol; AEEA = NCCOCCOCC(=O)O; Aib = CC(C)(N)C(=O)O

Sequence of human glucagon receptor (P47871 26-477): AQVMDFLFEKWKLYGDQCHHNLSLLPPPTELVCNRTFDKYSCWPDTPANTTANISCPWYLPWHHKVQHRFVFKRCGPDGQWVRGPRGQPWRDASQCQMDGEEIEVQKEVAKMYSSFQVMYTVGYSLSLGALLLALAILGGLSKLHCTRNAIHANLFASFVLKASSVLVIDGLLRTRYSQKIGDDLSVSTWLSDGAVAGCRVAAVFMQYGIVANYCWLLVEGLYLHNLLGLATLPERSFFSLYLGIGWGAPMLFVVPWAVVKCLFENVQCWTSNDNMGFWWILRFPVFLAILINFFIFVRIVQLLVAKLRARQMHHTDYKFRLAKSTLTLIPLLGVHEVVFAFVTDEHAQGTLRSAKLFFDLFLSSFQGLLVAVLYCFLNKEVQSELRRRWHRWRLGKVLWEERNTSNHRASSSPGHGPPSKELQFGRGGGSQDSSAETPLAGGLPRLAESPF

B1: Peptide 269 (peptide)
peptide: H[Aib]HGS[αMeF]TSDVSK[αMeF]LDSRAAK([PEG4′-γGlu-γGlu-C20 diacid])D[αMeF]VQ[Aib]IANT-NH2
For B1, the “hGluc-R EC50 (pM), cAMP” value in the test with human glucagon receptor worked out at 271 pM. For the same molecule, the “hGLP-1R EC50 (pM), cAMP” value in the test with human GLP-1 receptor is 52 pM.

B2: Peptide 285 (peptide)
peptide: HSHGS[αMeF]TSDVSK[αMeF]LDSRAAK([AEEA-AEEA-γGlu-C18 diacid])D[αMeF]VQ[Aib]IANT-NH2
modifications: not fully specified; also: S2: Aib per table
In the case of B2, in the test with human glucagon receptor, the “hGluc-R EC50 (pM), cAMP” value was 87 pM. The “hGLP-1R EC50 (pM), cAMP” value in the test with human GLP-1 receptor amounted to 301 pM.

B3: Peptide 277 (peptide)
peptide: H[Aib]HGS[αMeF]TSDVSK[αMeF]LDSRAAK([AEEA-AEEA-C20 diacid])D[αMeF]VQ[Aib]IANT-NH2
Turning to B3, the “hGluc-R EC50 (pM), cAMP” value with human glucagon receptor was determined as 57.3 pM. In the test with human GLP-1 receptor, the “hGLP-1R EC50 (pM), cAMP” value was determined as 49.5 pM.

B4: Peptide 278 (peptide)
peptide: H[Aib]HGS[αMeF]TSDVSK[αMeF]LDSRAAK([AEEA-C20 diacid])D[αMeF]VQ[Aib]IANT-NH2
In the case of B4, the “hGluc-R EC50 (pM), cAMP” value in the test with human glucagon receptor stood at 83.5 pM. For the same molecule, in the test with human GLP-1 receptor, the “hGLP-1R EC50 (pM), cAMP” value came out at 78.9 pM.

B5: Peptide 273 (peptide)
peptide: H[Aib]HGS[αMeF]TSDVSK[αMeF]LDSRAAK([AEEA-C18 diacid])D[αMeF]VQ[Aib]IANT-NH2
In the case of B5, in the test with human glucagon receptor, the “hGluc-R EC50 (pM), cAMP” value stood at 23.3 pM. Also, the “hGLP-1R EC50 (pM), cAMP” value in the test with human GLP-1 receptor amounted to 22.1 pM.

B6: Peptide 282 (peptide)
peptide: H[Aib]HGS[αMeF]TSDVSK[αMeF]LDSRAAK([AEEA-AEEA-γGlu-γGlu-C20 diacid])D[αMeF]VQ[Aib]IANT-NH2
modifications: also: S2: Aib per table, X6: αMePhe, F per table
With B6, the “hGluc-R EC50 (pM), cAMP” value with human glucagon receptor was 1140 pM. Also, the “hGLP-1R EC50 (pM), cAMP” value with human GLP-1 receptor was 1230 pM.

B7: Peptide 270 (peptide)
peptide: H[Aib]HGS[αMeF]TSDVSK[αMeF]LDSRAAK([γGlu-γGlu-C18 diacid])D[αMeF]VQ[Aib]IANT-NH2
As to B7, in the test with human glucagon receptor, the “hGluc-R EC50 (pM), cAMP” value came to 31.3 pM. In the test with human GLP-1 receptor, the “hGLP-1R EC50 (pM), cAMP” value was found to be 24.4 pM.

B8: Peptide 280 (peptide)
peptide: H[Aib]HGS[αMeF]TSDVSK[αMeF]LDSRAAK([AEEA-AEEA-γGlu-C20 diacid])D[αMeF]VQ[Aib]IANT-NH2
On to B8, for which, in the test with human glucagon receptor, the “hGluc-R EC50 (pM), cAMP” value is 155 pM. The “hGLP-1R EC50 (pM), cAMP” value with human GLP-1 receptor is 78.3 pM.

B9: Peptide 286 (peptide)
peptide: H[Aib]HGS[αMeF]TSDVSKYLDSRAAK([AEEA-AEEA-γGlu-C18 diacid])D[αMeF]VQ[Aib]IANT-NH2
modifications: also: F6: αMePhe per table, X13: αMePhe, Y per table
On to B9, for which, in the test with human glucagon receptor, the “hGluc-R EC50 (pM), cAMP” value was 53 pM. For the same molecule, the “hGLP-1R EC50 (pM), cAMP” value with human GLP-1 receptor came to 31.6 pM.

B10: Peptide 274 (peptide)
peptide: H[Aib]HGS[αMeF]TSDVSK[αMeF]LDSRAAK([AEEA-γGlu-γGlu-C18 diacid])D[αMeF]VQ[Aib]IANT-NH2
With B10, in the test with human glucagon receptor, the “hGluc-R EC50 (pM), cAMP” value stood at 31.3 pM. Further, the “hGLP-1R EC50 (pM), cAMP” value with human GLP-1 receptor worked out at 27.1 pM.

B11: Peptide 271 (peptide)
peptide: H[Aib]HGS[αMeF]TSDVSK[αMeF]LDSRAAK([γGlu-C18 diacid])D[αMeF]VQ[Aib]IANT-NH2
modifications: N-terminus assumed
SMILES: CC[C@H](C)[C@H](NC(=O)C(C)(C)NC(=O)[C@H](CCC(N)=O)NC(=O)[C@@H](NC(=O)[C@](C)(Cc1ccccc1)NC(=O)[C@H](CC(=O)O)NC(=O)[C@H](CCCCNC(=O)CC[C@H](NC(=O)CCCCCCCCCCCCCCCCC(=O)O)C(=O)O)NC(=O)[C@H](C)NC(=O)[C@H](C)NC(=O)[C@H](CCCNC(=N)N)NC(=O)[C@H](CO)NC(=O)[C@H](CC(=O)O)NC(=O)[C@H](CC(C)C)NC(=O)[C@](C)(Cc1ccccc1)NC(=O)[C@H](CCCCN)NC(=O)[C@H](CO)NC(=O)[C@@H](NC(=O)[C@H](CC(=O)O)NC(=O)[C@H](CO)NC(=O)[C@@H](NC(=O)[C@](C)(Cc1ccccc1)NC(=O)[C@H](CO)NC(=O)CNC(=O)[C@H](Cc1c[nH]cn1)NC(=O)C(C)(C)NC(=O)[C@@H](N)Cc1c[nH]cn1)[C@@H](C)O)C(C)C)C(C)C)C(=O)N[C@@H](C)C(=O)N[C@@H](CC(N)=O)C(=O)N[C@H](C(N)=O)[C@@H](C)O
As for B11, the “hGluc-R EC50 (pM), cAMP” value in the test with human glucagon receptor worked out at 28 pM. The “hGLP-1R EC50 (pM), cAMP” value with human GLP-1 receptor was 54.6 pM.

B12: Peptide 268 (peptide)
peptide: H[Aib]HGS[αMeF]TSDVSK[αMeF]LDSRAAK([AEEA-γGlu-C20 diacid])D[αMeF]VQ[Aib]IANT-NH2
modifications: N-terminus assumed
SMILES: CC[C@H](C)[C@H](NC(=O)C(C)(C)NC(=O)[C@H](CCC(N)=O)NC(=O)[C@@H](NC(=O)[C@](C)(Cc1ccccc1)NC(=O)[C@H](CC(=O)O)NC(=O)[C@H](CCCCNC(=O)COCCOCCNC(=O)CC[C@H](NC(=O)CCCCCCCCCCCCCCCCCCC(=O)O)C(=O)O)NC(=O)[C@H](C)NC(=O)[C@H](C)NC(=O)[C@H](CCCNC(=N)N)NC(=O)[C@H](CO)NC(=O)[C@H](CC(=O)O)NC(=O)[C@H](CC(C)C)NC(=O)[C@](C)(Cc1ccccc1)NC(=O)[C@H](CCCCN)NC(=O)[C@H](CO)NC(=O)[C@@H](NC(=O)[C@H](CC(=O)O)NC(=O)[C@H](CO)NC(=O)[C@@H](NC(=O)[C@](C)(Cc1ccccc1)NC(=O)[C@H](CO)NC(=O)CNC(=O)[C@H](Cc1c[nH]cn1)NC(=O)C(C)(C)NC(=O)[C@@H](N)Cc1c[nH]cn1)[C@@H](C)O)C(C)C)C(C)C)C(=O)N[C@@H](C)C(=O)N[C@@H](CC(N)=O)C(=O)N[C@H](C(N)=O)[C@@H](C)O
Turning to B12, the “hGluc-R EC50 (pM), cAMP” value in the test with human glucagon receptor was 29.3 pM. The “hGLP-1R EC50 (pM), cAMP” value with human GLP-1 receptor is 39.5 pM.

B13: Peptide 279 (peptide)
peptide: H[Aib]HGS[αMeF]TSDVSK[αMeF]LDSRAAK([AEEA-γGlu-γGlu-C20 diacid])D[αMeF]VQ[Aib]IANT-NH2
As to B13, the “hGluc-R EC50 (pM), cAMP” value with human glucagon receptor came to 150 pM. The “hGLP-1R EC50 (pM), cAMP” value with human GLP-1 receptor stood at 86.5 pM.

B14: Peptide 275 (peptide)
peptide: H[Aib]HGS[αMeF]TSDVSK[αMeF]LDSRAAK([γGlu-γGlu-C20 diacid])D[αMeF]VQ[Aib]IANT-NH2
As to B14, the “hGluc-R EC50 (pM), cAMP” value in the test with human glucagon receptor is 175 pM. In addition, the “hGLP-1R EC50 (pM), cAMP” value with human GLP-1 receptor is 111 pM.

B15: Peptide 283 (peptide)
peptide: H[Aib]HGS[αMeF]TSDVSKYLDSRAAK([AEEA-AEEA-γGlu-γGlu-C20 diacid])D[αMeF]VQ[Aib]IANT-NH2
modifications: also: F6: αMePhe per table, X13: αMePhe, Y per table
Consider B15, for which, in the test with human glucagon receptor, the “hGluc-R EC50 (pM), cAMP” value was 552 pM. The “hGLP-1R EC50 (pM), cAMP” value with human GLP-1 receptor was 129 pM.

B16: Peptide 272 (peptide)
peptide: H[Aib]HGS[αMeF]TSDVSK[αMeF]LDSRAAK([AEEA-AEEA-C18 diacid])D[αMeF]VQ[Aib]IANT-NH2
For B16, in the test with human glucagon receptor, the “hGluc-R EC50 (pM), cAMP” value stood at 14.3 pM. Also, the “hGLP-1R EC50 (pM), cAMP” value in the test with human GLP-1 receptor worked out at 15.7 pM.

B17: Peptide 276 (peptide)
peptide: H[Aib]HGS[αMeF]TSDVSK[αMeF]LDSRAAK([γGlu-C20 diacid])D[αMeF]VQ[Aib]IANT-NH2
For the molecule B17, the “hGluc-R EC50 (pM), cAMP” value with human glucagon receptor was found to be 91.4 pM. Moreover, the “hGLP-1R EC50 (pM), cAMP” value in the test with human GLP-1 receptor worked out at 143 pM.
